From patent US20080057519A1

Assays:
[1] = biological target: FLJ32028 with an HA epitope tag fused to the predicted C-terminal end of the protein (human) (UniProt Q6P9G4); experiment: flow cytometry on intact transfected 293-EBNA cells, streptavidin-PE detection
[2] = biological target: FLJ32028 with an HA epitope tag inserted at the predicted N-terminal end of the protein (human) (UniProt Q6P9G4); experiment: as above

## biotinylated Rat Anti-HA antibody (Roche)
[1]
  % of transfected GFP+ cells negative for HA: 85%
[2]
  % of transfected GFP+ cells positive for HA: > 99%
